Reference: publication PMC9482650, “Quantitative fragmentomics allow affinity mapping of interactomes” (Nature Communications, 2022)

T1: APBA2_2, Q99767
T1 sequence (Q99767 654-744, limits assumed, looked up): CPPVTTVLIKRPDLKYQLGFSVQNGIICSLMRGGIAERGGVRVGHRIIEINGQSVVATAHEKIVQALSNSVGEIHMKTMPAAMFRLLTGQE

T2: SHANK1, Q9Y566
T2 sequence (Q9Y566 658-767, limits assumed, looked up): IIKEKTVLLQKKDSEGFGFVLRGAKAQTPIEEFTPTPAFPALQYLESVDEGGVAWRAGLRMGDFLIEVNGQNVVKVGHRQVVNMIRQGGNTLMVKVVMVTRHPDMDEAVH

T3: PTPN13_1, Q12923
T3 sequence (Q12923 1088-1188, limits assumed, looked up): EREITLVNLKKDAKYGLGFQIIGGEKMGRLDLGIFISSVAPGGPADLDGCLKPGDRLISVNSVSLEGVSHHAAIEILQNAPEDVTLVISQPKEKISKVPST

T4: HTRA4, P83105
T4 sequence (P83105 378-476, limits assumed, looked up): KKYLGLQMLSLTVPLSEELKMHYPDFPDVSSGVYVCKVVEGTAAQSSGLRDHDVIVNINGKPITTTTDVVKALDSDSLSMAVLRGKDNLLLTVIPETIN

T5: RAPGEF6, Q8TEU7
T5 sequence (Q8TEU7 525-625, limits assumed, looked up): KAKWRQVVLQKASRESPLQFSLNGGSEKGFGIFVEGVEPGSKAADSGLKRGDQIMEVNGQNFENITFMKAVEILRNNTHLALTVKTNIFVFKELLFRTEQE

T6: APBA3_1, O96018
T6 sequence (O96018 389-490, limits assumed, looked up): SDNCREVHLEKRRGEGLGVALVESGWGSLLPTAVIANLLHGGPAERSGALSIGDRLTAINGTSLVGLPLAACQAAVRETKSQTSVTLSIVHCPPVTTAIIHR

T7: LNX2_2, Q8N448
T7 sequence (Q8N448 334-432, limits assumed, looked up): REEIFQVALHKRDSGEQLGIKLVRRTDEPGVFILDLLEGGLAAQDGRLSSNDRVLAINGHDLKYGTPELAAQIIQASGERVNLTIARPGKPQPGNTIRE

T8: NHERF3_4, Q5T2W1
T8 sequence (Q5T2W1 373-468, limits assumed, looked up): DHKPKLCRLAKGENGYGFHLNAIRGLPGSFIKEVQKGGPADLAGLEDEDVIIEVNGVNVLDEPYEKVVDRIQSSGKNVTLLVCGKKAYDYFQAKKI

T9: MPDZ_12, O75970
T9 sequence (O75970 1857-1958, limits assumed, looked up): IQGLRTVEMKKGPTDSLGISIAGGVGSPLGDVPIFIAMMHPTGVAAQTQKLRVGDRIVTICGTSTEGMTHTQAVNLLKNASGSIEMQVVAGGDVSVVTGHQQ

T10: PDZD7_3, Q9H5P4
T10 sequence (Q9H5P4 857-944, limits assumed, looked up): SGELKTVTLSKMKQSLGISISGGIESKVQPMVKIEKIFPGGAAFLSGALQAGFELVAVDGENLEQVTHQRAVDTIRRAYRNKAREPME

T11: GRIP1_5, Q9Y3R0
T11 sequence (Q9Y3R0 568-668, limits assumed, looked up): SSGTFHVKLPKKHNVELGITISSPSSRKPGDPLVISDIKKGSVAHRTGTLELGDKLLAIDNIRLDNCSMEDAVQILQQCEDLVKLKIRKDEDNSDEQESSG


Each binder was assayed against LIMK2, P53671 (assay: holdup assay). Settings: plain residues with an end cap or a label only (N-terminal biotin on a linker: ado-ado).
Sequence of LIMK2, P53671 (P53671 143-248): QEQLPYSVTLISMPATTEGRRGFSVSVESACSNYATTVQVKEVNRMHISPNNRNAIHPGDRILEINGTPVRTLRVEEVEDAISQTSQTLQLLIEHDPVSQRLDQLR
Design: key: below the threshold = too weak to quantify, mostly under pKd 3.1 to 4
With PYPTADHMLA [JUP, P14923] the pKd was “below the threshold”.

The binders below were run against LNX1_1, Q8TBB1 (assay: holdup assay). Settings: plain residues with an end cap or a label only (N-terminal biotin on a linker: ado-ado).
Sequence of LNX1_1, Q8TBB1 (Q8TBB1 261-371): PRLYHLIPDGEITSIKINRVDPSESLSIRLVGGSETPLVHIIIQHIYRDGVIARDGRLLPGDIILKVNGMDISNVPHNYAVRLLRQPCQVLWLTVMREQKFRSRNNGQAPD
Design: key: below the threshold = too weak to quantify, mostly under pKd 3.1 to 4
With PYPTADHMLA [JUP, P14923] the pKd was “below the threshold”.

What follows are binders tested against MAGI2_5, Q86UL8 (assay: holdup assay). Settings: plain residues with an end cap or a label only (N-terminal biotin on a linker: ado-ado).
Sequence of MAGI2_5, Q86UL8 (Q86UL8 915-1017): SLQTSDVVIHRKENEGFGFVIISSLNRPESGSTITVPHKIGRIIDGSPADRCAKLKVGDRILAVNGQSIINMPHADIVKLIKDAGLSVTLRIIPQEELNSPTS
Design: key: below the threshold = too weak to quantify, mostly under pKd 3.1 to 4
For PYPTADHMLA [JUP, P14923], the pKd was “below the threshold”.

Each binder was assayed against T1, APBA2_2, Q99767 (assay: holdup assay). Settings: plain residues with an end cap or a label only (N-terminal biotin on a linker: ado-ado).
Design: key: below the threshold = too weak to quantify, mostly under pKd 3.1 to 4
For PYPTADHMLA [JUP, P14923], the pKd was “below the threshold”.

What follows are binders tested against T2, SHANK1, Q9Y566 (assay: holdup assay). Settings: plain residues with an end cap or a label only (N-terminal biotin on a linker: ado-ado).
Design: key: below the threshold = too weak to quantify, mostly under pKd 3.1 to 4
PYPTADHMLA [JUP, P14923] was tested, and the pKd was “below the threshold”.

What follows are binders tested against PTPN3, P26045 (assay: holdup assay). Settings: plain residues with an end cap or a label only (N-terminal biotin on a linker: ado-ado).
Sequence of PTPN3, P26045 (P26045 505-587): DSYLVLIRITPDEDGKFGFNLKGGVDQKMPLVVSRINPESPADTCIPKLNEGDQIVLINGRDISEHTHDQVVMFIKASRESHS
Design: key: below the threshold = too weak to quantify, mostly under pKd 3.1 to 4
A pKd of 3.97 was found for PYPTADHMLA [JUP, P14923] in this work.

These binders were tested against T3, PTPN13_1, Q12923 (assay: holdup assay). Settings: plain residues with an end cap or a label only (N-terminal biotin on a linker: ado-ado).
Design: key: below the threshold = too weak to quantify, mostly under pKd 3.1 to 4
For PYPTADHMLA [JUP, P14923], the pKd was “below the threshold”.

What follows are binders tested against DLG1_1, Q12959 (assay: holdup assay). Settings: plain residues with an end cap or a label only (N-terminal biotin on a linker: ado-ado).
Design: key: below the threshold = too weak to quantify, mostly under pKd 3.1 to 4
With PYPTADHMLA [JUP, P14923] the pKd was “below the threshold”.

What follows are binders tested against DLG4_3, P78352 (assay: holdup assay). Settings: plain residues with an end cap or a label only (N-terminal biotin on a linker: ado-ado).
Sequence of DLG4_3, P78352 (P78352 306-403): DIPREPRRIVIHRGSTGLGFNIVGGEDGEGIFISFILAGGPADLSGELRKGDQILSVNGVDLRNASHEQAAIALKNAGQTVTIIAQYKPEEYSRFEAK
Design: key: below the threshold = too weak to quantify, mostly under pKd 3.1 to 4
PYPTADHMLA [JUP, P14923] was tested, and the pKd was “below the threshold”.

What follows are binders tested against T4, HTRA4, P83105 (assay: holdup assay). Settings: plain residues with an end cap or a label only (N-terminal biotin on a linker: ado-ado).
Design: key: below the threshold = too weak to quantify, mostly under pKd 3.1 to 4
For PYPTADHMLA [JUP, P14923], the pKd was “below the threshold”.

The binders below were run against T5, RAPGEF6, Q8TEU7 (assay: holdup assay). Settings: plain residues with an end cap or a label only (N-terminal biotin on a linker: ado-ado).
Design: key: below the threshold = too weak to quantify, mostly under pKd 3.1 to 4
With PYPTADHMLA [JUP, P14923] the pKd was “below the threshold”.

These binders were tested against DLG4_2, P78352 (assay: holdup assay). Settings: plain residues with an end cap or a label only (N-terminal biotin on a linker: ado-ado).
Sequence of DLG4_2, P78352 (P78352 155-259): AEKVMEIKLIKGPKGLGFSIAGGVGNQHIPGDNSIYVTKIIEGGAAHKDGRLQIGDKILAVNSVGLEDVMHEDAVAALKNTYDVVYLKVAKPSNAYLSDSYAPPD
Design: key: below the threshold = too weak to quantify, mostly under pKd 3.1 to 4
In the case of PYPTADHMLA [JUP, P14923], the pKd is reported as “below the threshold”.

Each binder was assayed against Inadl_1, Q8NI35 (assay: holdup assay). Settings: plain residues with an end cap or a label only (N-terminal biotin on a linker: ado-ado).
Sequence of Inadl_1, Q8NI35 (Q8NI35 113-229): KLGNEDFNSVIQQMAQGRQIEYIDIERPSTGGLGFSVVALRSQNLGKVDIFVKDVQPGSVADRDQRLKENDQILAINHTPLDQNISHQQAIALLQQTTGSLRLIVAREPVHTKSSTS
Design: key: below the threshold = too weak to quantify, mostly under pKd 3.1 to 4
With PYPTADHMLA [JUP, P14923] the pKd was “below the threshold”.

These binders were tested against T6, APBA3_1, O96018 (assay: holdup assay). Settings: plain residues with an end cap or a label only (N-terminal biotin on a linker: ado-ado).
Design: key: below the threshold = too weak to quantify, mostly under pKd 3.1 to 4
In the case of PYPTADHMLA [JUP, P14923], the pKd is reported as “below the threshold”.

The binders below were run against FRMPD4, Q14CM0 (assay: holdup assay). Settings: plain residues with an end cap or a label only (N-terminal biotin on a linker: ado-ado).
Sequence of FRMPD4, Q14CM0 (Q14CM0 67-160): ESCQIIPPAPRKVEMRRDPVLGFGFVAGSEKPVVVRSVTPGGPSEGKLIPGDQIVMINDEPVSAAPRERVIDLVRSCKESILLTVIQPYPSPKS
Design: key: below the threshold = too weak to quantify, mostly under pKd 3.1 to 4
For PYPTADHMLA [JUP, P14923], the pKd was “below the threshold”.

The binders below were run against DLG2_2, Q15700 (assay: holdup assay). Settings: plain residues with an end cap or a label only (N-terminal biotin on a linker: ado-ado).
Sequence of DLG2_2, Q15700 (Q15700 189-283): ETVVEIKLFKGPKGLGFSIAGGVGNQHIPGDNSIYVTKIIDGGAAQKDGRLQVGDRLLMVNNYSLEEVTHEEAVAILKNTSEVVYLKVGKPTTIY
Design: key: below the threshold = too weak to quantify, mostly under pKd 3.1 to 4
In the case of PYPTADHMLA [JUP, P14923], the pKd is reported as “below the threshold”.

What follows are binders tested against Inadl_3, Q8NI35 (assay: holdup assay). Settings: plain residues with an end cap or a label only (N-terminal biotin on a linker: ado-ado).
Sequence of Inadl_3, Q8NI35 (Q8NI35 359-469): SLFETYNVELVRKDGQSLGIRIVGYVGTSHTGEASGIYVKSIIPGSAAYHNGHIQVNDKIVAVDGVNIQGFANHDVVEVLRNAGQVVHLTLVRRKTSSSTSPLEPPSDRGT
Design: key: below the threshold = too weak to quantify, mostly under pKd 3.1 to 4
PYPTADHMLA [JUP, P14923] was tested, and the pKd was “below the threshold”.

Each binder was assayed against Inadl_9, Q8NI35 (assay: holdup assay). Settings: plain residues with an end cap or a label only (N-terminal biotin on a linker: ado-ado).
Sequence of Inadl_9, Q8NI35 (Q8NI35 1530-1615): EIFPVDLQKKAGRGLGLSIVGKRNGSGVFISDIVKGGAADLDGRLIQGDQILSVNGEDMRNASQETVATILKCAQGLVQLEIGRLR
Design: key: below the threshold = too weak to quantify, mostly under pKd 3.1 to 4
PYPTADHMLA [JUP, P14923] was tested, and the pKd was “below the threshold”.

The binders below were run against T7, LNX2_2, Q8N448 (assay: holdup assay). Settings: plain residues with an end cap or a label only (N-terminal biotin on a linker: ado-ado).
Design: key: below the threshold = too weak to quantify, mostly under pKd 3.1 to 4
For PYPTADHMLA [JUP, P14923], the pKd was “below the threshold”.

These binders were tested against T8, NHERF3_4, Q5T2W1 (assay: holdup assay). Settings: plain residues with an end cap or a label only (N-terminal biotin on a linker: ado-ado).
Design: key: below the threshold = too weak to quantify, mostly under pKd 3.1 to 4
In the case of PYPTADHMLA [JUP, P14923], the pKd is reported as “below the threshold”.

These binders were tested against PDZRN4_1, Q6ZMN7 (assay: holdup assay). Settings: plain residues with an end cap or a label only (N-terminal biotin on a linker: ado-ado).
Sequence of PDZRN4_1, Q6ZMN7 (Q6ZMN7 213-318): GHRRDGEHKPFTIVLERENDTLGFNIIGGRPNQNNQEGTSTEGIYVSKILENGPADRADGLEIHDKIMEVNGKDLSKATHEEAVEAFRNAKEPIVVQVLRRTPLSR
Design: key: below the threshold = too weak to quantify, mostly under pKd 3.1 to 4
For PYPTADHMLA [JUP, P14923], the pKd was “below the threshold”.

The binders below were run against MAGI2_6, Q86UL8 (assay: holdup assay). Settings: plain residues with an end cap or a label only (N-terminal biotin on a linker: ado-ado).
Sequence of MAGI2_6, Q86UL8 (Q86UL8 1141-1229): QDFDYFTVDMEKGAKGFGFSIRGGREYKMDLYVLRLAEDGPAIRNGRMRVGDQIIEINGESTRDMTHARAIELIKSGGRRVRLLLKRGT
Design: key: below the threshold = too weak to quantify, mostly under pKd 3.1 to 4
In the case of PYPTADHMLA [JUP, P14923], the pKd is reported as “below the threshold”.

These binders were tested against LNX1_2, Q8TBB1 (assay: holdup assay). Settings: plain residues with an end cap or a label only (N-terminal biotin on a linker: ado-ado).
Sequence of LNX1_2, Q8TBB1 (Q8TBB1 371-470): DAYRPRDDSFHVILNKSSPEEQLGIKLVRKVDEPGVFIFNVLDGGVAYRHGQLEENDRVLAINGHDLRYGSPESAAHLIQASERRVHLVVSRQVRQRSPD
Design: key: below the threshold = too weak to quantify, mostly under pKd 3.1 to 4
PYPTADHMLA [JUP, P14923] was tested, and the pKd was “below the threshold”.

These binders were tested against T9, MPDZ_12, O75970 (assay: holdup assay). Settings: plain residues with an end cap or a label only (N-terminal biotin on a linker: ado-ado).
Design: key: below the threshold = too weak to quantify, mostly under pKd 3.1 to 4
For PYPTADHMLA [JUP, P14923], the pKd was “below the threshold”.

These binders were tested against T10, PDZD7_3, Q9H5P4 (assay: holdup assay). Settings: plain residues with an end cap or a label only (N-terminal biotin on a linker: ado-ado).
Design: key: below the threshold = too weak to quantify, mostly under pKd 3.1 to 4
With PYPTADHMLA [JUP, P14923] the pKd was “below the threshold”.

The binders below were run against AHNAK1, Q09666 (assay: holdup assay). Settings: plain residues with an end cap or a label only (N-terminal biotin on a linker: ado-ado).
Sequence of AHNAK1, Q09666 (Q09666 4-100): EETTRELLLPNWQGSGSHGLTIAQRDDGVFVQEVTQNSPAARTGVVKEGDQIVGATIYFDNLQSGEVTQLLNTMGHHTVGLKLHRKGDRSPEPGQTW
Design: key: below the threshold = too weak to quantify, mostly under pKd 3.1 to 4
PYPTADHMLA [JUP, P14923] was tested, and the pKd was “below the threshold”.

The binders below were run against T11, GRIP1_5, Q9Y3R0 (assay: holdup assay). Settings: plain residues with an end cap or a label only (N-terminal biotin on a linker: ado-ado).
Design: key: below the threshold = too weak to quantify, mostly under pKd 3.1 to 4
PYPTADHMLA [JUP, P14923] was tested, and the pKd was “below the threshold”.
